Activity (cpm) and Fold induction data for two proteins are collected here from patent US20130039933.

In series [1] the target is A366 peptide (STING peptide substrate with alanine at 366).
Series [2] deals with S366 peptide (STING peptide substrate with serine 366).

B1: GRK7 (protein)
chain: MVDMGALDNLIANTAYLQARKPSDCDSKELQRRRRSLALPGLQGCAELRQKLSLNFHSLCEQQPIGRRLFRDFLATVPTFRKAATFLEDVQNWELAEEGPTKDSALQGLVATCASAPAPGNPQPFLSQAVATKCQAATTEEERVAAVTLAKAEAMAFLQEQPFKDFVTSAFYDKFLQWKLFEMQPVSDKYFTEFRVLGKGGFGEVCAVQVKNTGKMYACKKLDKKRLKKKGGEKMALLEKEILEKVSSPFIVSLAYAFESKTHLCLVMSLMNGGDLKFHIYNVGTRGLDMSRVIFYSAQIACGMLHLHELGIVYRDMKPENVLLDDLGNCRLSDLGLAVEMKGGKPITQRAGTNGYMAPEILMEKVSYSYPVDWFAMGCSIYEMVAGRTPFKDYKEKVSKEDLKQRTLQDEVKFQHDNFTEEAKDICRLFLAKKPEQRLGSREKSDDPRKHHFFKTINFPRLEAGLIEPPFVPDPSVVYAKDIAEIDDFSEVRGVEFDDKDKQFFKNFATGAVPIAWQEEIIETGLFEELNDPNRPTGCEEGNSSKSGVCLLL
In the case of B1, the Activity (cpm) in series [1] was found to be 7260 cpm. In series [2], the Activity (cpm) worked out at 13100 cpm and the Fold induction came to 1.81 fold.

B2: ULK2 (protein)
chain: MEVVGDFEYSKRDLVGHGAFAVVFRGRHRQKTDWEVAIKSINKKNLSKSQILLGKEIKILKELQHENIVALYDVQELPNSVFLVMEYCNGGDLADYLQAKGTLSEDTIRVFLHQIAAAMRILHSKGIIHRDLKPQNILLSYANRRKSSVSGIRIKIADFGFARYLHSNMMAATLCGSPMYMAPEVIMSQHYDAKADLWSIGTVIYQCLVGKPPFQANSPQDLRMFYEKNRSLMPSIPRETSPYLANLLLGLLQRNQKDRMDFEAFFSHPFLEQGPVKKSCPVPVPMYSGSVSGSSCGSSPSCRFASPPSLPDMQHIQEENLSSPPLGPPNYLQVSKDSASTSSKNSSCDTDDFVLVPHNISSDHSCDMPVGTAGRRASNEFLVCGGQCQPTVSPHSETAPIPVPTQIRNYQRIEQNLTSTASSGTNVHGSPRSAVVRRSNTSPMGFLRPGSCSPVPADTAQTVGRRLSTGSSRPYSPSPLVGTIPEQFSQCCCGHPQGHDSRSRNSSGSPVPQAQSPQSLLSGARLQSAPTLTDIYQNKQKLRKQHSDPVCPSHTGAGYSYSPQPSRPGSLGTSPTKHLGSSPRSSDWFFKTPLPTIIGSPTKTTAPFKIPKTQASSNLLALVTRHGPAEE
With B2, the values for the Activity (cpm) in series [1] and in series [2] were 7380 cpm and 156000 cpm, respectively. Besides, in series [2], the Fold induction is 21.1 fold.
